Test results reported in the nanobody polyreactivity screen of Harvey et al. (2022).

Assay: yeast display, Sf9 membrane polyspecificity reagent, FACS + sequencing; frameworks hold sequencing errors
Procedure, shortened: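 Using colony PCR, genes from sorted yeast display clones were amplified, then sequenced on MiSeq at 2 × 250 and filtered by CDR length. The clones had been stained with 10% biotinylated, detergent-solubilized Sf9 membrane reagent for 1 hour at 4 °C and sorted by FACS into low and high (top ~1%) gates on anti-HA and streptavidin fluorescence. Polyreactivity labels come from the gate of origin.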

Sequence	polyreactivity (PSR sort gate)
QVQLVESGGGLVHAGGSLRLSCAASGSTFPSYAMGWYRQAPGKERELVAAINSGGGTYYADSVKGRFTISRDNAKNTVYLQRNSLKPEDTAVYYCATSRYDYTKTEGGYWGQGNQVTVSS	low polyreactivity
QVQLVESGGGLVQAGGSLRLSCAASGSTFQSNAMGWYRQAPGKERELVAAISSSAGTTFYADSVKGRFTISRDNAKNTVYLQMNSLKPEDTAVYYCAKKDFYFAPSPGYYRSRDYWGQGTQVTVSS	low polyreactivity
QVQLVESGGGLDQAGGSLRLSCAASGSIFFYNVLGWYRQAPGKERELVASISWRGASTYYADSVKGRFTISRDNAKNTVYLQMNSLKPEDTAVYYCAARFRSATRYQTGYYWGQGTQVTVSS	high polyreactivity
QVQLVESGGGLVQAGGSLRLSCAASGRTFYDYTMGRYRQAPGKERELVAAISQRGGSTYYADSVKGRFTISRDNAKNTVYLQMNSLKPEDTAVYYCAARTSYSGNKYYYWGQGTQVTVSS	high polyreactivity
QVQLVESGGGIVQAGGSLRLSCAASGLTFSIYPIGWYRQAPGKERELVAAISWSGGSTYYADSVKGRFTISRDNAKNTVYLQMNSLKPEDTAVYYCAARVYRPWWSYDYWGQGTQVTVSS	high polyreactivity
QVQLVESGGGLVQAGGSLRLSCAASGYIFQYYPMGWYRQAPGKERELVAAITSGTRTYYADSVKGRFTISRDNAKNTVYLQMNSLKPDDTAGYYCAASPDYSRYWVYAPTRRLGYWGQGTQVTVSS	high polyreactivity
QVQLVESGGGLVQAGGSLRLSCAASGRIFKNNAMGWYRQAPGKERELVAVISGSGGSTYADSVKGRFTISRDNAKNTVYLQLNSLKPADTAVYYCAASRYYRIWYSLLQGYDYWGQGTQVTVSS	high polyreactivity
QVQLVESGGGLVQAGGSLRLSCAASRFTFSYYAMVWYRKAHVKERELVAAISWRGGTPYADSVKGRFTISRDNAKKTVYLQMNSLKPEDTAVYYCNTAYQVYWRGNYWGQGTQVTVSS	high polyreactivity
QVQLVESGGGLVQAGGSLRLSCAASGSIFKYYAMGWYRKAPGKERELVAAISYRVGRTYYADSVKGRFTISRDNAKNTVYLQMNSLKPEDTAVYYCNTAYLSGQEYDYWGQGTQVTVSS	high polyreactivity
QVQLVESGGGLVQAGGSLRLSCAASGSIFGGNTMGWYRKAPGKERELVAAITNGGRTNYADSVKGRFTISRDNAKNTVYLQMNSLKPEDTAVYYCNAVTYSRRYAYYYWGQGTQVTVSS	high polyreactivity
QVQLVESGGGLVQAGGSLRLTCAASGRTYNLYAMGWSRQAPGKERELVAAISSSTDSTYYAYSVKGRFTISRDNAKITVYLEMNSLKPEDTSVYYFAARRPSYPRYGYWGQGTQVTVSS	high polyreactivity
QLQLVESGGGLVQAGGSLRLSCAASGLIFYDNMAWSRPAPAKEMELVAAISSSGGSTSYADSVKGRFSISRDNAKNTVYLQLISLKPEDTAVYYCAADSYPAYLGFVGFDYWGQGTQVTVSS	low polyreactivity
QVQLVESGGGLVQAGGSLRLSCAASGSTFVFYVMVWYRQAPGKERQLVAAITGSTTSTYYAVSVKGRFTISRDNAKNTVYLQMNSLKPEDTAVYYCAAEVLRGRGFGYWGQGTQVCVSS	high polyreactivity
QVQLVESGGGLVQAGGSLRLSCAASGSIFKYNAMGWYRQAPGKEREFVAAISRSGGSTYYADSVKGRFTISRDNAKNTVYLQMNSLKPEDTAVYYCATTSRYSWSDYWGQGTQVTVSS	high polyreactivity
QVQLVESGGCLVQAGGSLRLSCAATGSIFYGNTMVWYRQAPGKDRELLAAISSGGSTKYADSVKGRFTISRDNAKNTVYLQMNSLKPEDTAVYYCAADLPRYWVTWMDYRGQGTQVTVSS	low polyreactivity
QVQLVESGGRLVQAGGSLRLSCAASGRTFYHNAMGWYRQAPGKERELVAVITWSGGSTYYADSVKGRFTISRDNAKNTVYLQMNSLKPEDTAVYYCATRRYGYERILYNYWGQGTQVTVSS	high polyreactivity
QVQLVESGGGLVQAGGSRRLSCAASGSNFRNNAIGWYRQAPGKERELVAVISRRSGNTYYADSVKGRFTISRDNGKKTVYLPMHSLKPEDTAVYYCASDYCKSSIRGDYWGQGTQVTVSS	low polyreactivity
QVQLVESGGGLVQAGGSLRLSCAASGSIFSVNTMGWYRQAPGKERELVAAISGSGGSTYYADSVKGRFTISRDNATNPVYLQMNSLKPEETAVYYCAKVYRRGAGYNYWGQGTQVTVSS	high polyreactivity
QVPLVEAGGGLVQAGGSLRVSCAASGITFQLYGMGWYSQAPGKERELVAAITGSDGITYYADSVKGRFTISLDNAKNTVYLPMNSLKPEDTAVYYCAAEWWDYWNEYDYWGQGTQVTVSS	high polyreactivity
QVQLVESGGGLVQAGGSLRLSCAASGSTVYHYAMGWNRQAPGKERELVAAISFSGGRTSYADSVKGRFTISRDNAKNTVDLQMNSLKPEDTAGYYCAAKYIRFARSRDYWGHGTQVTVSS	high polyreactivity
QVQLVESGGGLVQAGGSLRLSCAASGFTFFRIYAMGWYRQAPGKERELVAAISRSGSTYADSVKGRFTISRDNAKNTVYLQMNSLKPEDTAVYYCNTTLYADSVWYDYWGQGTQVTVSS	high polyreactivity
QVQLVESGGGLVQAGGSLRLSCAASGRTFALNTMGWYRQAPGKERELVAAITIGGSTYYADSVKGRFTISRDNAKNTVYLQMNSLKPEDTAVYYCAARTRGAWAYWGQGTQVTVSS	high polyreactivity

Sequence	polyreactivity (PSR sort gate)
QVQLVESGGGLVQAGGSLRLSCAASGSIFYHNAMGWYRQAPGKERELVAAITWSGSTTYYADSVKGRFTISRDNAKNTVYLQMNSLKPEDTAVYYCNAGNRHGHYDYWGQGTQVTVSS	low polyreactivity
QVQLVESGGGLVQAGGSLRLSCAASGFIFTWYTMGWSRQAPGKERELVAAITSGGNTNYADSVKGRFTISRDNAKNTVYLQMNSLKPEDTSVYYCALGYLASRLKFAKYDYWGQGTQVNVSS	high polyreactivity
QVQHVESGGGLVQAGGSLRLSCAASGSTFWYNAMGWYRQAPGKERELVAAISYSGGRTYYADSVKERFTISRDNAKNTVYLQMNSLKPEDTAVYYCNAASRYGGDYWGQGTQVTVSS	low polyreactivity
QVQLVESGGGLVQAGGSLRLSCAASGSIFRGYTMGWYRQATGKERELVAAITSGDSTNYADSVKGRFTISRDNAKNTVYLQMNSLKPEDTAVYYCAAGRLYLPYLVYLTYSFVGYYYWGQGTQVTVSS	high polyreactivity
QVQLVESGGGLVQAGGSLRLSCAASGSIFGIYAMGWYRQAPGKERELVAAIRRGGSTYYADSVKGRFTISRDNAKNTVYLQMNSLKPEDTAVYYCNTDYHRLLRSRPKYYYWGQGTQVTVSS	high polyreactivity
QVQLVESGGGLVQAGGSLRLSCAASGSTFGQYAMGWYRQAPGKERELVAAISRNGGRTYYADSVKGRFTISRDNAKNTVYLLMNSLKPEDTAVYYCAAGGFLYVYYRGMYYWGQGTQVTVSS	high polyreactivity
QVQLVESGGGLVQAGGSLRLSCAASGSIFGGYAMGWYRQAPGKERELVAAISYRGASTYYADSVKGRFTISRDNAKNTVYLQMNSLKPEDTAVYYCAARHDKRRQYYVGQSAFDYWGQGTQVTVSS	low polyreactivity
QVQLVESGGGLVQAGGSLRLSCAASGFTFYRYAMGWYRQAPGKERQLVAAISRRGGSTDYADSVKGRFTISRDNAKNTVYLQMNRLKPEDTAVYYCAASYSRGVGKLGYWGQGTQVTVSS	high polyreactivity
QVQLVESCGGLVQAGGSLRLSCAASGFIFDWYAMGWYRQAPGKVRELVAAITTDGGGTYYADSVKGRFTISRDNAKNNVYLQMNSLKPEDTAVYDCAADGVSTSPQYDYWGQGTQVTVSS	high polyreactivity
QVQLVESGGGLVQAGGSLRLSCAASGNIFGFNAMGWYRQAPGKERELVAAINSGGSTYYADSVKGRFTISRDNAKNTLYLQMNSLKPEDTAVYYCAAVRGKYRFGFWGQGTQVTVSS	high polyreactivity
QVQLVESGGGLVQAGGSLRLSCAASGSTFFYYAMGWYRQAPGKERAFVAAISSSVGTTYYADSVKGRFTISRDNAKNTVYLQMNRLKPVDTAVYYCAKASSATRYVQLRQDYDYWGQGTQVTVSS	low polyreactivity
QGQLVESGGGLVQARGSLRLSCAAYGRTFYGNVMGWYRQAPGNERELDATISVSSGSTYYADSVKGRFTISRDTEKNTVYLLMNSLKPEDSAVYYCNADDTDYATGGGNYWGQGTQVTVSS	low polyreactivity
QVQLVESGGGLVQAGGSLRLSCAASGSIFSINAMGWYRQAPGKERELVAAISWSGGSTYYADSVKGRFTISRDNAKNTVYLQMNSLKPEDTAVYYCNAEEDEYGELDYWGLGTQVTVSS	low polyreactivity
QVQLVESGGGLVQAGGSLRLSCAASGSTFGRYAMGWYRQAPGKERELVAGISRGGTTYYADSVKGRFTISRDNAKNTVYLQLNSLKPEDTAVYYCAKLRWPVFDYWGQGTQVTVSS	high polyreactivity
QVQLVESGGGLVQAGGSLRLSCAAYGIIFYLYVMGWYRQAPGKERELVAVISYSGDDTYYADSVKGRFTISRDNAKNTVYLQMNSLKPEDTAVYYCAADYYYVYSSFGHYYWGQGTQVTVSS	low polyreactivity
QVQLVESGGGLVQAGGSLRLSCAASGIILNYYAMGWYRQAPGKERELVAAISSGGTTYYADSVKGRFTISRDNAKNTVYLQMNSLKPEDTAVYYCNADYLYSRGGDWRWWDMDYWGQGTQVTVSS	low polyreactivity
QVQLVESGGGLVQAGGSLRLSCAASGSTFQRYAMGWYRQAPGKERELVAAITSGGSTYYADSVKGRFTISRDNAKNTVYLQMNSQKPEDTAVYYCNAAWFYRYGYWGQGTQVTVSS	high polyreactivity
QVQLVESGGGLVQAGGSLRLSCAASGFTFQYYAMGWYRQAPGKERELVAAISWSGGRTYYADSVKGRFTISRDNAKNSVYLQMNSLKPVDTAVYYCAAQWYKWAYNNTLLRYYYWGQGTQVTVSS	high polyreactivity
QVQLLESGGGLVQAGGSLRLSCAASGSIFVFYAMGWYRQAPGKERELVAAISSSGGSTYYADTVKGRITISRDNAKNTVYLQMNSLKPEDTAVYYCAVRRSTGSRSPPMYYWGQGTQVTVSS	high polyreactivity
QVQLVQSGGGLVQAGGSLRLSCSASGRIFSAYAMGWYRPAPGKERELVAAITWSGANTDYADSVKGRFTMSRDNAKYTVYLQMNSLKPEDTAVYYCNASVGRDSAYDYWGQGTQVTVSS	low polyreactivity
QVQHVESGGGLVHAGGSLRLSCAASGSTFRPYPRGWSRQAPGKERELVAAIRKIGGRTYYADSVKGRFTISRDNAKNTVYLQMNSLKPEDTAVYYCNKRIGGGVHAYNYWGQGTQVTVSS	low polyreactivity
